Here are results for one substance from patent US20260083855A1.

Holding throughout (experiment): cell-based or functional assay
Experiment [1] addresses IL-2R on human cells (activated CD4 T cells, PBMC subsets, NK92) (human) (UniProt P14784). Further details: AUC of STAT5-P on PD1+ T cells / AUC of STAT5-P on PD1-blocked T cells: unit not given beside the values.
Experiment [2] shares this target. More on the design: EC50 on MFI of STAT5-P, PD-1+ CD4 T cells: unit not given beside the values.
For experiment [3] the target is unchanged.

IL-2R on human cells (activated CD4 T cells, PBMC subsets, NK92) (human), sequence (P14784 27-551, chain 1 of 2): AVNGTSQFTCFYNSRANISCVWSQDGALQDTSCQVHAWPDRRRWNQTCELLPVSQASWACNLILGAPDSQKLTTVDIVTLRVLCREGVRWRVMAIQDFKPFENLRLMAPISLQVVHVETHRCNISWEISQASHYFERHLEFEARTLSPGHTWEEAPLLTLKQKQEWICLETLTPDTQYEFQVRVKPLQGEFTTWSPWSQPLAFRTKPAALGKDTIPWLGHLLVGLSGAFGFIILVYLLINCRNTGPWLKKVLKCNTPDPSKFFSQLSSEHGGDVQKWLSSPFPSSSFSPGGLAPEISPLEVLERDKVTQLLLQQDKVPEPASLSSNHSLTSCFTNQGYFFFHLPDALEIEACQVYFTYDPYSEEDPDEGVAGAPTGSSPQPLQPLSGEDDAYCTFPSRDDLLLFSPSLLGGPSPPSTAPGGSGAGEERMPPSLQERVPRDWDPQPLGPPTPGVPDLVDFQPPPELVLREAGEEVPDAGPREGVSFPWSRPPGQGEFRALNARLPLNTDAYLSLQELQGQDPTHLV
IL-2R on human cells (activated CD4 T cells, PBMC subsets, NK92) (human), sequence (P31785 23-369, chain 2 of 2, further chain): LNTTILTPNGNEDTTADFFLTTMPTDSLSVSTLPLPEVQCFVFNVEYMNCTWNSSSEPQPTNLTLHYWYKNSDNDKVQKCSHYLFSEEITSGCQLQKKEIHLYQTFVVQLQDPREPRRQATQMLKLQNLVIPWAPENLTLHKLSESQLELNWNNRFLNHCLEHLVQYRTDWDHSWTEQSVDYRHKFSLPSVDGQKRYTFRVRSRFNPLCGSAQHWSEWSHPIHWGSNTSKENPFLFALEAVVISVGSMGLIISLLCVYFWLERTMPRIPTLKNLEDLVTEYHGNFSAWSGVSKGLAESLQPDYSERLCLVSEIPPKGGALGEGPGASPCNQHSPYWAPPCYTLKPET

In experiment [1], FAP-IL2v returned an AUC of STAT5-P on PD1+ T cells of 144, an AUC of STAT5-P on PD1-blocked T cells of 142 and a Potency reduction vs PD1-IL2v of 8.13 fold. In experiment [2], this substance displayed an EC50 on MFI of STAT5-P, PD-1+ CD4 T cells of 8530; a Potency reduction versus PD1-IL2v (MFI) of 12.6 fold; a Potency reduction versus PD1-IL2v (frequency) of 12.9 fold. In experiment [3], this substance gave a Percentage of internalization (0.6 nM, activated CD4 T cells, 3 h at 37 C) of 89.8% and a Potency reduction vs PD1-IL2v on PD-1+ LAG-3+ T cells of 107 fold.
